Experimental data published in patent US12060424 (AMUNIX PHARMACEUTICALS, dated 2024).

How the values were obtained:
[1] = molecular target: recombinant human CD3 epsilon & delta (rhCD3ε & δ), Creative BioMart cat #CD3E&CD3D-219H (human) (UniProt P07766); assay: SPR
[2] = molecular target: T1, Fc-tagged EpCAM (R&D Systems, cat #960-EP-050), human, coupled to SPR chip (human, UniProt P16422 24-265); assay: SPR
T1 construct: Bought reagent; also called human EpCAM; EpCAM chip; not shown: Fc tag of the bought reagent
T1 sequence (looked up): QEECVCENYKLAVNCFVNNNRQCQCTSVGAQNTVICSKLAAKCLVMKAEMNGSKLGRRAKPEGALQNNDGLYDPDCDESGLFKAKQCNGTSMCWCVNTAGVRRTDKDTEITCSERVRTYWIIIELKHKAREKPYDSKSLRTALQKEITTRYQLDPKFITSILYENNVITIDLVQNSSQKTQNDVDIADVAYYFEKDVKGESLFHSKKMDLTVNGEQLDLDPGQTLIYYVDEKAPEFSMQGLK

[3] = molecular target: T2, human CD3 on cells (CD3+ Jurkat cells; purified human CD3 positive T cells) (human, UniProt P07766 23-207); assay: cell-based or functional assay
[4] = molecular target: T3, human EpCAM expressed on cells (CHO cells stably transfected with human EpCAM); EpCAM-positive human tumor … (human, UniProt P16422 24-314); assay: competition flow cytometry on EpCAM-CHO cells
T3 construct: whole, on cells; also called EpCAM-CHO; hEp-CHO 4-12B
T3 sequence (looked up): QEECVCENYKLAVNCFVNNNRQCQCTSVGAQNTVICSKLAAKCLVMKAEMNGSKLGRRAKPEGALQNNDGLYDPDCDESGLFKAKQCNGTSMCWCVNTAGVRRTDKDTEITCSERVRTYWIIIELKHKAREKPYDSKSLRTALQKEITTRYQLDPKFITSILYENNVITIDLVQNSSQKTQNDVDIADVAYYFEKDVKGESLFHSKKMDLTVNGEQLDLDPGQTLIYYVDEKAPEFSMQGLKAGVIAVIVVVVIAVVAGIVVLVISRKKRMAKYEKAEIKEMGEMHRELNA

[5] = molecular target: T2, human CD3 on cells (CD3+ Jurkat cells; …); assay: competition flow cytometry on CD3+ Jurkat cells
[6] = molecular target: T4, recombinant human EpCAM (rhEpCAM), coated on ELISA plate (human, UniProt P16422 24-265); assay: sandwich ELISA: rhEpCAM coated, biotin-conjugated protein L detection
T4 construct: Bought reagent
T4 sequence (looked up): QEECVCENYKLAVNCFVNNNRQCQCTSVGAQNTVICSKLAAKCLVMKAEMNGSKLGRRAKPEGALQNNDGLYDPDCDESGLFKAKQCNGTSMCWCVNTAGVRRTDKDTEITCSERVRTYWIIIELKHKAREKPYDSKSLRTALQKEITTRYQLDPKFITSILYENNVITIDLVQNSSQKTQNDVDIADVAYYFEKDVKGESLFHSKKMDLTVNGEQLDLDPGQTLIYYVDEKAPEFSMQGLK

[7] = molecular target: T4, recombinant human EpCAM (rhEpCAM), …; assay: sandwich ELISA: rhEpCAM coated, peroxidase-conjugated protein L detection
[8] = molecular target: recombinant human CD3 epsilon & delta (rhCD3ε & δ), Creative BioMart cat #CD3E&CD3D-219H (human) (UniProt P07766); assay: sandwich ELISA: rhCD3ε & δ coated, peroxidase-conjugated protein L detection
[9] = molecular target: T5, recombinant human CEA (Abcam cat #ab742), coated on ELISA plate (human, UniProt P06731 35-685, limits assumed); assay: sandwich ELISA: recombinant human CEA coated, biotin-conjugated protein L detection
T5 construct: also called CEA antigen
T5 sequence (looked up): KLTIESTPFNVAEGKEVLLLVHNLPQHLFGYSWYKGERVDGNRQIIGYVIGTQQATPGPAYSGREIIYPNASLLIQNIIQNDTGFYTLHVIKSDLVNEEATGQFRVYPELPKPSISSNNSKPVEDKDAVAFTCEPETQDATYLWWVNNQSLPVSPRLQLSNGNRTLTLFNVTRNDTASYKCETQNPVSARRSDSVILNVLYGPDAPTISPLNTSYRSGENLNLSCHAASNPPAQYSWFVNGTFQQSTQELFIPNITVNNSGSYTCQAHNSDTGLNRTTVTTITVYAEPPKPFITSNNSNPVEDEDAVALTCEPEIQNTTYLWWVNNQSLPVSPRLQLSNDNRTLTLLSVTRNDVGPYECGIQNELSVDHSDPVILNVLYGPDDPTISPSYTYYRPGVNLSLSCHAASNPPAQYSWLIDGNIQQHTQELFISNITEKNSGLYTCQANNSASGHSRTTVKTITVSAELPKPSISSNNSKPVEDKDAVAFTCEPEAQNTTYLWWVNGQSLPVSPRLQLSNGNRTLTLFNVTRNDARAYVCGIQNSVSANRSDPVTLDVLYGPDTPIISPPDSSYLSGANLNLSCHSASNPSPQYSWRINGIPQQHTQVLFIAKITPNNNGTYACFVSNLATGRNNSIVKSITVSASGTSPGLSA

[10] = molecular target: T6, recombinant human HER2 (AcroBiosystems cat #HE2-H525), coated on ELISA plate (human, UniProt P04626 23-652); assay: sandwich ELISA: recombinant human HER2 coated, biotin-conjugated protein L detection
T6 construct: also called HER2 antigen

[11] = molecular target: recombinant human CD3 epsilon & delta (rhCD3ε & δ), Creative BioMart cat #CD3E&CD3D-219H (human) (UniProt P07766); assay: SPR (Biacore 3000), His-tagged CD3εδ coupled to chip, ProTIA as analyte at 5-6 concentrations
[12] = molecular target: T1, Fc-tagged EpCAM (R&D Systems, cat …); assay: SPR (Biacore 3000), Fc-tagged EpCAM coupled to chip, ProTIA as analyte at 5-6 concentrations

T2 sequence (P07766 23-207): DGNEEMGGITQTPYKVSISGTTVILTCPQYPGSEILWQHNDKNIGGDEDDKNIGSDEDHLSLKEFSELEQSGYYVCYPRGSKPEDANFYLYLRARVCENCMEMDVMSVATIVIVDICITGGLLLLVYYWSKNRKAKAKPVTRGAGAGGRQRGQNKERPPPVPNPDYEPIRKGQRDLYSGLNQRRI
Sequence of recombinant human CD3 epsilon & delta (rhCD3ε & δ), Creative BioMart cat #CD3E&CD3D-219H (human) (P07766 23-126, stated change not applied, chain 1 of 2): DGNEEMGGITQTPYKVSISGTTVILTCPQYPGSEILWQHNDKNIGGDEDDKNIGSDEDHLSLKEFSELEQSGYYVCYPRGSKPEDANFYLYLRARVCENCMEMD
Sequence of recombinant human CD3 epsilon & delta (rhCD3ε & δ), Creative BioMart cat #CD3E&CD3D-219H (human) (P04234 22-105, stated change not applied, chain 2 of 2, further chain): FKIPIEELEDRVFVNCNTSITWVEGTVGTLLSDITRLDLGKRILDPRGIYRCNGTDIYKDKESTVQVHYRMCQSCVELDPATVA

fold stronger binding affinity than untreated and non-cleavable ProTIA [1]: 10 fold | fold stronger binding affinity than untreated and non-cleavable ProTIA [2]: ~10 fold | fold stronger binding affinity than untreated and non-cleavable ProTIA [4]: ~10 fold | fold stronger binding affinity than untreated and non-cleavable ProTIA [5]: ~30 fold | EC50 [6]: 110 pM | EC50 [7]: 120 pM | EC50 [8]: 310 pM | binding result [9]: no binding | binding result [10]: no binding | Kd [11]: 2220 pM | Kd [12]: 1150 pM
B1: protease-treated (MMP-9 cleaved) AC1476 anti-EpCAM×anti-CD3 ProTIA (bispecific antibody)
chain: DIQMTQSPSSLSASVGDRVTITCRSTKSLLHSNGITYLYWYQQKPGKAPKLLIYQMSNLASGVPSRFSSSGSGTDFTLTISSLQPEDFATYYCAQNLEIPRTFGQGTKVEIKGATPPETGAETESPGETTGGSAESEPPGEGQVQLVQSGPGLVQPGGSVRISCAASGYTFTNYGMNWVKQAPGKGLEWMGWINTYTGESTYADSFKGRFTFSLDTSASAAYLQINSLRAEDTAVYYCARFAIKGDYWGQGTLLTVSSGGGGSDIQMTQSPSSLSASVGDRVTITCRASQDIRNYLNWYQQKPGKAPKLLIYYTSRLESGVPSRFSGSGSGTDYTLTISSLQPEDFATYYCQQGNTLPWTFGQGTKVEIKGATPPETGAETESPGETTGGSAESEPPGEGEVQLVESGGGLVQPGGSLRLSCAASGYSFTGYTMNWVRQAPGKGLEWVALINPYKGVSTYNQKFKDRFTISVDKSKNTAYLQMNSLRAEDTAVYYCARSGYYGDSDWYFDVWGQGTLVTVSSGTAEAASASGLSGRSDNHSPLG
notes: mass 58,071 Da); also called MMP-9 treated AC1476; MMP-9 treated AC1516
EC50, LDH release cytotoxicity, purified human CD3 positive T cells with OVCAR-3 cells 5:1 [3]: 0.3 pM | EC50, LDH release cytotoxicity, purified human CD3 positive T cells with SK-OV-3 cells 5:1 [3]: 2.4 pM
